Experimental data as given in patent publication US20030044809A1, “Nucleic acid binding of multi-zinc finger transcription factors” (published 2003).

T1: GST-SIP1NZF (mouse, UniProt Q9R0G7 Q9R0G7:90-383)
T1 sequence: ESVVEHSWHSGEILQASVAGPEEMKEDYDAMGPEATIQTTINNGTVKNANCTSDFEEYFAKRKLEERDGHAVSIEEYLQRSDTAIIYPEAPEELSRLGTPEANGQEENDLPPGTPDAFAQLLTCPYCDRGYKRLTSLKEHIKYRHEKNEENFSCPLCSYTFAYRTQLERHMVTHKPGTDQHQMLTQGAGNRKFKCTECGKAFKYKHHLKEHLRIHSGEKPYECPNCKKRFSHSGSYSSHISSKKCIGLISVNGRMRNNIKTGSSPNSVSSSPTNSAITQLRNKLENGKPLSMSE

T2: GST-SIP1CZF (mouse, UniProt Q9R0G7 Q9R0G7:957-1156)
T2 sequence: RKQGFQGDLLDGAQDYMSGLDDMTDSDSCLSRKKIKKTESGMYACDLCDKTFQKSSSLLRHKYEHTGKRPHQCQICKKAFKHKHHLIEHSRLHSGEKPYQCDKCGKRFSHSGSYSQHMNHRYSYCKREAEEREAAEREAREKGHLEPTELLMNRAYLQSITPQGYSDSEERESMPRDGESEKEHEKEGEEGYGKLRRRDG

B1: FLAG-tagged SIP1 (other, mouse, UniProt Q9R0G7 1-1214, looked up)
chain: MKQPIMADGPRCKRRKQANPRRKNVVNYDNVVDAGSETDEEDKLHIAEDDSLANPLDQDTSPASMPNHESSPHMSQGLLPREEEEEELRESVVEHSWHSGEILQASVAGPEEMKEDYDAMGPEATIQTTINNGTVKNANCTSDFEEYFAKRKLEERDGHAVSIEEYLQRSDTAIIYPEAPEELSRLGTPEANGQEENDLPPGTPDAFAQLLTCPYCDRGYKRLTSLKEHIKYRHEKNEENFSCPLCSYTFAYRTQLERHMVTHKPGTDQHQMLTQGAGNRKFKCTECGKAFKYKHHLKEHLRIHSGEKPYECPNCKKRFSHSGSYSSHISSKKCIGLISVNGRMRNNIKTGSSPNSVSSSPTNSAITQLRNKLENGKPLSMSEQTGLLKIKTEPLDFNDYKVLMATHGFSGSSPFMNGGLGATSPLGVHPSAQSPMQHLGVGMEAPLLGFPTMNSNLSEVQKVLQIVDNTVSRQKMDCKTEDISKLKGYHMKDPCSQPEEQGVTSPNIPPVGLPVVSHNGATKSIIDYTLEKVNEAKACLQSLTTDSRRQISNIKKEKLRTLIDLVTDDKMIENHSISTPFSCQFCKESFPGPIPLHQHERYLCKMNEEIKAVLQPHENIVPNKAGVFVDNKALLLSSVLSEKGLTSPINPYKDHMSVLKAYYAMNMEPNSDELLKISIAVGLPQEFVKEWFEQRKVYQYSNSRSPSLERTSKPLAPNSNPTTKDSLLPRSPVKPMDSITSPSIAELHNSVTSCDPPLRLTKSSHFTNIKAVDKLDHSRSNTPSPLNLSSTSSKNSHSSSYTPNSFSSEELQAEPLDLSLPKQMREPKGIIATKNKTKATSINLDHNSVSSSSENSDEPLNLTFIKKEFSNSNNLDNKSNNPVFGMNPFSAKPLYTPLPPQSAFPPATFMPPVQTSIPGLRPYPGLDQMSFLPHMAYTYPTGAATFADMQQRRKYQRKQGFQGDLLDGAQDYMSGLDDMTDSDSCLSRKKIKKTESGMYACDLCDKTFQKSSSLLRHKYEHTGKRPHQCQICKKAFKHKHHLIEHSRLHSGEKPYQCDKCGKRFSHSGSYSQHMNHRYSYCKREAEEREAAEREAREKGHLEPTELLMNRAYLQSITPQGYSDSEERESMPRDGESEKEHEKEGEEGYGKLRRRDGDEEEEEEEEESENKSMDTDPETIRDEEETGDHSMDDSSEDGKMETKSDHEEDNMEDGM
notes: range 1-1214; Produced in COS1 cells from pCDNA3; tested in total cell extract; also called FLAG-tagged SIP1FS; pCDNA3-SIP1 (Flag-tagged); not shown: FLAG tag at the N-terminus
B2: Myc-tagged full size SIP1 (SIP1FS) (other, mouse, UniProt Q9R0G7 1-1214, looked up)
chain: B1 chain
notes: range 1-1214; Produced in COS1 cells from pCS3; tested in total cell extract; also called Myc-tagged SIP1; WT SIP1; not shown: (Myc)6 tag of pCS3 at the N-terminus
B3: Xbra-E (dsDNA)
DNA 1: TAAAGTGACCAGGTGTCAGTTCT
DNA 2: AGAACTGACACCTGGTCACTTTA

Key:
[1] = test system: SIP1 full size in cells (mouse); assay: cell_activity; conditions: luciferase reporter; derepressed by E-box mutations
[2] = target: B2; assay: EMSA double supershift with anti-Myc and anti-FLAG antibodies, Xbra-WT probe
Protocol: (§1) For supershift experiments, the extracts were incubated with anti-Myc (Santa Cruz) or anti-FLAG (Kodak) antibodies. For competition, an excess of unlabeled double-stranded oligonucleotides was added together with the labeled probe. The binding reaction was loaded onto a 4% polyacrylamide gel (acrylamide/bis-acrylamide, 19:1) prepared in 0.5XTBE buffer. Following electrophoresis, gels were dried, and exposed to X-Ray film. All experiments were repeated at least three times.
To address this experimentally, we used a combination of differently tagged SIP1 in supershift experiments in EMSAs. […] The SIP1 complex generated with Myc-tagged SIP1 has a slightly slower migration than the FLAG-tagged complex (the Myc-tag is longer than the FLAG-tag). […] Using an anti-FLAG antibody, only the lower part of the complex corresponding to FLAG-tagged SIP1 is super-shifted, whereas about 50% of the radioactivity remains within the Myc-tagged SIP1 complex. […] Conversely, incubating the extract with an anti-Myc antibody super-shifted only the […] part of the complex corresponding to Myc-tagged SIP1 whereas 50% of the radioactivity is retained within the FLAG-tagged SIP1 complex. […] However, we detected no other super-shifted band corresponding to a potential double super-shift, viz. super-shifted with both anti-Myc- and anti-FLAG-antibodies.

FLAG-tagged SIP1 = target: B1; assay: immunoprecipitation with anti-Myc antibody, detection with anti-FLAG antibody
Protocol: Transfected cells were washed with PBS-O (137 mM NaCl, 2.7 mM KCl, 6.5 mM Na₂HPO₄, 1.5 mM KH₂PO₄), collected in detachment buffer (10 mM Tris pH7.5, 1 mM EDTA, 10% glycerol, with protease inhibitors (Protease inhibitor Cocktail tablets, Boehringer Mannheim)) and pelleted by low spin centrifugation. The cells were then solubilized in 10 mM Tris, pH 7.4, 125 mM NaCl, 1% Triton X-100. For direct electrophoretic analysis, gel sample buffer was added to the cell lysates and the samples were boiled. For other experiments, lysates were first subjected to immunoprecipitation with either anti-Myc or anti-FLAG antibodies. Antibodies were added to aliquots of the cell lysates, which were incubated overnight at 4° C. The antibodies and the bound protein(s) of the cell lysate were coupled as a complex to protein A-Sepharose for 2 hours at 4° C. The immunoprecipitates were washed 4 times in NET buffer (50 mM Tris pH 8.0, 150 mM NaCl, 0.1% NP40, 1 mM EDTA, 0.25% gelatin), resolved by SDS-polyacrylamide (7.5%) gel electrophoresis, and electrophoretically transferred to nitrocellulose membranes. […] Immunoreactive bands were detected with an enhanced chemiluminescence reagent (NEN). […]

GST-SIP1NZF = target: T1, GST-SIP1NZF; assay: EMSA; strong; conditions: tags: GST; label: 32P
Protocol: as §1, with “The DNA binding assay (20 μl) was performed at 25° C., with 1 μg of COS1 total cell protein, […] of poly dI-dC, 10 pg of ³²P-labeled double-stranded oligonucleotide (approx. 10⁴ Cerenkov counts) in the δEF1 binding buffer described previously (30). For supershift” for “For supershift”
(§2) The integrity of both SIP1 zinc finger clusters is necessary for the binding of SIP1FS to DNA: Mutations within NZF3, NZF4, CZF2, CZF3 abolish the DNA-binding activity of either the SIP1NZF or SIP1CZF zinc finger clusters. The wild type and mutated zinc finger clusters were fused to GST and the fusion proteins were produced in E. Coli. After purification, an equal amount of each fusion proteins (0.1 ng) was incubated with 10 pg of labeled Xbra-E probe. Mutations within NZF3, NZF4, CZF2 or CZF3 affect the binding of SIP1FS to the Xbra-WT probe. […]

GST-SIP1CZF = target: T2, GST-SIP1CZF; assay: EMSA; strong; conditions: tags: GST; label: 32P
Protocol: as §1, with “The DNA binding assay (20 μl) was performed at 25° C., with 1 μg of COS1 total cell protein, […] of poly dI-dC, 10 pg of ³²P-labeled double-stranded oligonucleotide (approx. 10⁴ Cerenkov counts) in the δEF1 binding buffer described previously (30). For supershift” for “For supershift”
as §2

Molecule: E-cadherin promoter reporter
activity (% decrease of promoter activity) [1]: 80

Molecule: B1
binding result [2]: no binding

Molecule: B2
binding result (FLAG-tagged SIP1): no binding

Molecule: B3
binding result (GST-SIP1NZF): binds
binding result (GST-SIP1CZF): binds
